Assay results taken from US20200087410A1 (GLYCOTOPE, published 2020).

Target: T1, CD40 (immobilized CD40, antigen ELISA / surface plasmon resonance) (human, UniProt P25942 21-193, limits assumed)
T1 construct: also called TNFRSF5; TNF receptor super family member 5
Assay: immobilized CD40; screen by antigen ELISA and surface plasmon resonance (method of the KD not named)
Experimental: Following expression of the different constructs in NM-H9D8 and NM-H9D8-E6Q12 cells, the titer of the humanized antibody variants was determined and their concentration adjusted. Then, the humanized antibodies were screened in an antigen ELISA and via surface plasmon resonance.

T1 sequence (P25942 21-193 limits assumed): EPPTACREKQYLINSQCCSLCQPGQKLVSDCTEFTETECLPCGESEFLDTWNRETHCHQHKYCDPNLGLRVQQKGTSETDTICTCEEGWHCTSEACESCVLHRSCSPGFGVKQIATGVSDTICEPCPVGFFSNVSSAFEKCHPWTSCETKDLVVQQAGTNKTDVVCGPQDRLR

- Kd: 25 nM
B1: humanized anti-CD40 antibody variant VH10/VL2 (as screened in Example 3) (antibody, V domains shown)
VH: EVQLVQSGAEVKKPGASVKISCKTSGYTFTEYIMHWVKQSPGKSLEWIGGIIPNNGGTSYNQKFKDRVTMTVDKSISTGYMELSRLRSDDTAVYYCTRREVYGRNYYALDYWGQGTLVTVSS
VL: DIQMTQSPSSLSASVGDRVTITCSASQGINNYLNWYQQKPGKAPKLLIYYTSSLHSGVPSRFSGSGSGTDYTFTISSLQPEDIATYYCQQYSNLPYTFGQGTKLEIKR
notes: Human gamma1 or gamma2 heavy constant region and human kappa constant region; also called hLob
